{"source": "patent US12084513", "about": "(dated 2024)", "binders": {"B1": {"name": "IPN009VH2/IPN009VK3 (antibody, V domains shown)", "VH": "EVMLVESGGGLVKPGGSLRLSCAASGFTFSNYAMSWVRQAPGKGLEWVATISSGGSHTYYLDSVKGRFTISRDNSKDTLYLQMNSLRAEDTALYYCARLFTGYAMDYWGQGTLVTVSS", "VL": "QIVLTQSPATLSLSPGERATLSCTASSSVSSSYLHWYQQKPGKAPKLWIYSTSNLASGVPSRFSGSGSGTDYTLTISSLQPEDFATYYCHQYYRLPPITFGQGTKLEIK"}, "B2": {"name": "IPN92H0307/IPN93L0058 (antibody, V domains shown)", "VH": "B1 VH with T28E, S30E, Y60E, K65D, G102K, Y103H", "VL": "B1 VL with S28E, P96H"}, "B3": {"name": "IPN92H0033/IPN93L0021 (antibody, V domains shown)", "VH": "B1 VH with Y103H", "VL": "B1 VL with Y92H"}, "B4": {"name": "IPN009VH2/IPN93L0024 (antibody, V domains shown)", "VH": "B1 VH", "VL": "B1 VL with P96H"}, "B5": {"name": "IPN92H0288/IPN93L0058 (antibody, V domains shown)", "VH": "B1 VH with Y60E, K65D, G102K, Y103H", "VL": "B1 VL with S28E, P96H"}, "B6": {"name": "IPN92H0033/IPN93L0031 (antibody, V domains shown)", "VH": "B1 VH with Y103H", "VL": "B1 VL with Y93H, L95H, P96H"}, "B7": {"name": "IPN92H0288/IPN93L0211 (antibody, V domains shown)", "VH": "B1 VH with Y60E, K65D, G102K, Y103H", "VL": "B1 VL with S28E, S31E, P96H"}, "B8": {"name": "IPN92H0033/IPN93L0024 (antibody, V domains shown)", "VH": "B1 VH with Y103H", "VL": "B1 VL with P96H"}, "B9": {"name": "IPN92H0033/IPN009VK3 (antibody, V domains shown)", "VH": "B1 VH with Y103H", "VL": "B1 VL"}, "B10": {"name": "IPN92H0012/IPN009VK3 (antibody, V domains shown)", "VH": "B1 VH with I51H", "VL": "B1 VL"}, "B11": {"name": "IPN009VH2/IPN93L0031 (antibody, V domains shown)", "VH": "B1 VH", "VL": "B1 VL with Y93H, L95H, P96H"}, "B12": {"name": "IPN009VH2/IPN93L0021 (antibody, V domains shown)", "VH": "B1 VH", "VL": "B1 VL with Y92H"}}, "key": {"human C1s [1]": {"biological_target": "T1, human C1s (human)", "T1 chain": "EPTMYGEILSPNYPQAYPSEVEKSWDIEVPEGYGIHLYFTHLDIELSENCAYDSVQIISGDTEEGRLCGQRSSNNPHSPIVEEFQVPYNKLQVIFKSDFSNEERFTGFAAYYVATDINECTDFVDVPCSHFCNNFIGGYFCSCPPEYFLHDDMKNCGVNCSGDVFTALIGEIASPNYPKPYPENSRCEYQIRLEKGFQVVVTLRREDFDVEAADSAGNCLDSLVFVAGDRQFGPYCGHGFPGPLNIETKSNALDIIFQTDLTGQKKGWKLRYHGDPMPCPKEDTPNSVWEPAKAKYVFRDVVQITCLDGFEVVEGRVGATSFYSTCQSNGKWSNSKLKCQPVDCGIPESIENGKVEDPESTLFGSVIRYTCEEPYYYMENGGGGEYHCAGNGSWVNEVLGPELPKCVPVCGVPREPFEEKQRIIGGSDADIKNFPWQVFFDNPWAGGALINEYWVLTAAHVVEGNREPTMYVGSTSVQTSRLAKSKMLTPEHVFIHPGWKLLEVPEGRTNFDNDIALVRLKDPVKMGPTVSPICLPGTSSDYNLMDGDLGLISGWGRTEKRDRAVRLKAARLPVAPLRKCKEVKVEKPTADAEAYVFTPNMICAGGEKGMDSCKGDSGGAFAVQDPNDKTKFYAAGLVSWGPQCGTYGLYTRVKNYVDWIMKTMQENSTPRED", "assay": "SPR pH 7.4 37C"}, "human C1s [2]": {"biological_target": "T1, human C1s", "assay": "SPR pH 5.8 low Ca 37C"}, "human C1s [3]": {"biological_target": "T1, human C1s", "assay": "SPR pH 5.8 37C"}, "human C1s [4]": {"biological_target": "T1, human C1s", "assay": "SPR pH 7.4 37C"}, "human C1s [5]": {"biological_target": "T1, human C1s", "assay": "SPR pH 7.4 37C"}, "human C1s [6]": {"biological_target": "T1, human C1s", "assay": "SPR pH 5.8 37C"}, "human C1s [7]": {"biological_target": "T1, human C1s", "assay": "SPR pH 5.8 37C"}, "human C1s [8]": {"biological_target": "T1, human C1s", "assay": "SPR pH 7.4 37C"}, "human C1s [9]": {"biological_target": "T1, human C1s", "assay": "SPR pH 5.8 low Ca 37C, low response"}, "human C1s [10]": {"biological_target": "T1, human C1s", "assay": "SPR pH 7.4 37C"}, "human C1s [11]": {"biological_target": "T1, human C1s", "assay": "SPR pH 5.8 37C"}, "human C1s [12]": {"biological_target": "T1, human C1s", "assay": "SPR pH 5.8 low Ca 37C, low response"}, "human C1s [13]": {"biological_target": "T1, human C1s", "assay": "SPR pH 5.8 37C, low response"}, "human C1s [14]": {"biological_target": "T1, human C1s", "assay": "SPR pH 7.4 37C, low response"}, "human C1s [15]": {"biological_target": "T1, human C1s", "assay": "SPR pH 5.8 37C, low response"}}, "note": "Changes are numbered by the printed parent chain."}
{"binder": "B1", "values": [{"measurement": "Kd", "setting": "human C1s [1]", "result": 1.19, "unit": "nM"}, {"measurement": "Kd", "setting": "human C1s [2]", "result": 3.37, "unit": "nM"}, {"measurement": "Kd", "setting": "human C1s [3]", "result": 0.164, "unit": "nM"}, {"measurement": "Kd", "setting": "human C1s [4]", "result": 0.824, "unit": "nM"}, {"measurement": "Kd", "setting": "human C1s [5]", "result": 1.24, "unit": "nM"}, {"measurement": "Kd", "setting": "human C1s [6]", "result": 0.449, "unit": "nM"}]}
{"binder": "B2", "values": [{"measurement": "Kd", "setting": "human C1s [1]", "result": 1.34, "unit": "nM"}, {"measurement": "Kd", "setting": "human C1s [7]", "result": 19.5, "unit": "nM"}, {"measurement": "Kd", "setting": "human C1s [8]", "result": 1.93, "unit": "nM"}, {"measurement": "Kd", "setting": "human C1s [9]", "result": 4.95, "unit": "nM"}, {"measurement": "Kd", "setting": "human C1s [6]", "result": 38.1, "unit": "nM"}]}
{"binder": "B3", "values": [{"measurement": "Kd", "setting": "human C1s [10]", "result": 1.92, "unit": "nM"}, {"measurement": "Kd", "setting": "human C1s [11]", "result": 5.01, "unit": "nM"}, {"measurement": "Kd", "setting": "human C1s [12]", "result": 7.59, "unit": "nM"}]}
{"binder": "B4", "values": [{"measurement": "Kd", "setting": "human C1s [1]", "result": 3.4, "unit": "nM"}, {"measurement": "Kd", "setting": "human C1s [2]", "result": 22.3, "unit": "nM"}, {"measurement": "Kd", "setting": "human C1s [3]", "result": 3.87, "unit": "nM"}, {"measurement": "Kd", "setting": "human C1s [4]", "result": 2.46, "unit": "nM"}, {"measurement": "Kd", "setting": "human C1s [6]", "result": 4.32, "unit": "nM"}]}
{"binder": "B5", "values": [{"measurement": "Kd", "setting": "human C1s [1]", "result": 0.611, "unit": "nM"}, {"measurement": "Kd", "setting": "human C1s [7]", "result": 19.5, "unit": "nM"}, {"measurement": "Kd", "setting": "human C1s [8]", "result": 0.838, "unit": "nM"}, {"measurement": "Kd", "setting": "human C1s [9]", "result": 7.96, "unit": "nM"}, {"measurement": "Kd", "setting": "human C1s [6]", "result": 40.1, "unit": "nM"}]}
{"binder": "B6", "values": [{"measurement": "Kd", "setting": "human C1s [13]", "result": 2.59, "unit": "nM"}, {"measurement": "Kd", "setting": "human C1s [12]", "result": 13.9, "unit": "nM"}, {"measurement": "Kd", "setting": "human C1s [14]", "result": 3.59, "unit": "nM"}]}
{"binder": "B7", "values": [{"measurement": "Kd", "setting": "human C1s [1]", "result": 1.11, "unit": "nM"}, {"measurement": "Kd", "setting": "human C1s [15]", "result": 16.5, "unit": "nM"}, {"measurement": "Kd", "setting": "human C1s [8]", "result": 1.67, "unit": "nM"}, {"measurement": "Kd", "setting": "human C1s [9]", "result": 10.4, "unit": "nM"}, {"measurement": "Kd", "setting": "human C1s [6]", "result": 83.1, "unit": "nM"}]}
{"binder": "B8", "values": [{"measurement": "Kd", "setting": "human C1s [1]", "result": 2.51, "unit": "nM"}, {"measurement": "Kd", "setting": "human C1s [10]", "result": 2.9, "unit": "nM"}, {"measurement": "Kd", "setting": "human C1s [11]", "result": 8.66, "unit": "nM"}, {"measurement": "Kd", "setting": "human C1s [12]", "result": 5.3, "unit": "nM"}, {"measurement": "Kd", "setting": "human C1s [6]", "result": 11.9, "unit": "nM"}]}
{"binder": "B9", "values": [{"measurement": "Kd", "setting": "human C1s [1]", "result": 1.01, "unit": "nM"}, {"measurement": "Kd", "setting": "human C1s [2]", "result": 9.57, "unit": "nM"}, {"measurement": "Kd", "setting": "human C1s [3]", "result": 0.515, "unit": "nM"}, {"measurement": "Kd", "setting": "human C1s [4]", "result": 0.79, "unit": "nM"}, {"measurement": "Kd", "setting": "human C1s [6]", "result": 0.931, "unit": "nM"}]}
{"binder": "B10", "values": [{"measurement": "Kd", "setting": "human C1s [5]", "result": 10.5, "unit": "nM"}]}
{"binder": "B11", "values": [{"measurement": "Kd", "setting": "human C1s [13]", "result": 23.9, "unit": "nM"}, {"measurement": "Kd", "setting": "human C1s [12]", "result": 4960, "unit": "nM"}, {"measurement": "Kd", "setting": "human C1s [14]", "result": 0.168, "unit": "nM"}]}
{"binder": "B12", "values": [{"measurement": "Kd", "setting": "human C1s [1]", "result": 2.92, "unit": "nM"}, {"measurement": "Kd", "setting": "human C1s [2]", "result": 9.54, "unit": "nM"}, {"measurement": "Kd", "setting": "human C1s [3]", "result": 3.21, "unit": "nM"}, {"measurement": "Kd", "setting": "human C1s [4]", "result": 2.68, "unit": "nM"}, {"measurement": "Kd", "setting": "human C1s [6]", "result": 4.34, "unit": "nM"}]}
